The source of these data is paper PMC6769490, “Protein Engineering of Multi-Modular Transcription Factor Alcohol Dehydrogenase Repressor 1 (Adr1p), a Tool for Dissecting In Vitro Transcription Activation” (Biomolecules, 2019).

“And” between values parts separate entries of the source, which are not always exact repeats. Equal entries are not always repeated.

For data set [1], the target named is T1, miniAdr1-BL (untagged) (Saccharomyces cerevisiae, UniProt P07248 75-471, del1-74;del179-418;del472-1323).
T1 sequence: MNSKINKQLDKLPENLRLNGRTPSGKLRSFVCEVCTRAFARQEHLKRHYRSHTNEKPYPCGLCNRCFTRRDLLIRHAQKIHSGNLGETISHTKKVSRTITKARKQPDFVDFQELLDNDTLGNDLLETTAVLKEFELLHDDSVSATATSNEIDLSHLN
In words: EMSA; 5 mM CHAPS; hairpin not competent for binding; 40 mM Na phosphate pH 7.5, 40 mM NaCl, 10% glycerol, 18 uM Zn acetate (+/- 5 mM CHAPS, DTT, spermine), 30 min 4 C; HPLC-purified: 20 mM phosphate pH 7.0, 40 mM. The note with it: protein: recombinant; tags: none; chain copies: 2; label: 33P; hairpin of a single strand, 5' overhang 4 nt.

Data set [2] concerns the target T1, miniAdr1-BL (untagged). Briefly: EMSA; 5 mM CHAPS, Zn acetate; protein 3.16e-8 to 1e-6 M, DNA 1e-8 M; 40 mM Na phosphate pH 7.5, 40 mM NaCl, 10% glycerol, 18 uM Zn acetate (+/- 5 mM CHAPS, DTT, spermine), 30 min 4 C; HPLC-purified: 20 mM phosphate pH 7.0, 40 mM. The conditions noted are these: protein: recombinant; tags: none; chain copies: 2; label: 33P (5' kinase label); self-complementary duplex, 5' overhang 4 nt at both ends.

For data set [3], the target named is T2, Adr1-DBD (untagged) (Saccharomyces cerevisiae, UniProt P07248 75-178).
T2 sequence: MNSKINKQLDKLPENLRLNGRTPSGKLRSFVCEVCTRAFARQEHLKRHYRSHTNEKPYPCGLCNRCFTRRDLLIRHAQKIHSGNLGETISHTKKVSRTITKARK
Briefly: EMSA; 5 mM CHAPS, Zn acetate; two smeared bands; 40 mM Na phosphate pH 7.5, 40 mM NaCl, 10% glycerol, 18 uM Zn acetate (+/- 5 mM CHAPS, DTT, spermine), 30 min 4 C; HPLC-purified: 20 mM phosphate pH 7.0, 40 mM. The note with it: protein: recombinant; tags: none; label: 33P (5' kinase label); self-complementary duplex, 5' overhang 4 nt at both ends.

In the next data set the target is T3, His-Adr1-165 (Saccharomyces cerevisiae, UniProt P07248 1-165).
T3 sequence: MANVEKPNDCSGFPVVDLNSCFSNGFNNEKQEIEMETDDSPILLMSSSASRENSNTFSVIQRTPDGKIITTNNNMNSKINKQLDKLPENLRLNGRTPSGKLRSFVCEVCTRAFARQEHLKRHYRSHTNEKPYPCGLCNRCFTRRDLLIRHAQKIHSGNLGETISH
In words: EMSA; CM + heparin purified; monomer and dimer; 40 mM Na phosphate pH 7.5, 40 mM NaCl, 10% glycerol, 18 uM Zn acetate (+/- 5 mM CHAPS, DTT, spermine), 30 min 4 C; HPLC-purified: 20 mM phosphate pH 7.0, 40 mM. The conditions noted are these: protein: recombinant; tags: His-tag; label: 33P or none (ethidium bromide); 5' overhang 1 nt at both ends. On the technique in general: A gel shift assay detects complexes by their altered migration in electrophoresis.

The target of data set [4] is T1, miniAdr1-BL (untagged). Briefly: EMSA; no CHAPS, Zn acetate; mostly dimer; 40 mM Na phosphate pH 7.5, 40 mM NaCl, 10% glycerol, 18 uM Zn acetate (+/- 5 mM CHAPS, DTT, spermine), 30 min 4 C; HPLC-purified: 20 mM phosphate pH 7.0, 40 mM. The conditions noted are these: protein: recombinant; tags: none; chain copies: 2; label: 33P or none (ethidium bromide); 5' overhang 1 nt at both ends.

Data set [5] deals with T2, Adr1-DBD (untagged). Briefly: EMSA; no CHAPS, Zn acetate; mostly monomer; 40 mM Na phosphate pH 7.5, 40 mM NaCl, 10% glycerol, 18 uM Zn acetate (+/- 5 mM CHAPS, DTT, spermine), 30 min 4 C; HPLC-purified: 20 mM phosphate pH 7.0, 40 mM. The note with it: protein: recombinant; tags: none; label: 33P or none (ethidium bromide); 5' overhang 1 nt at both ends.
Data set [6] deals with the molecule itself. In words: native gel or EMSA; N-PAGE/EMSA with half site dsDNA (one binding site), no CHAPS; 20, 40 and 80 pmol protein; stoichiometric mixture of both proteins (40 pmol) in lane 7.
Data set [7] concerns the molecule itself. Briefly: SEC; miniAdr1-BL alone, freshly purified and concentrated, no DNA; Superdex G75 on HPLC, 50 mM Na/K phosphate pH 6.9, 150 mM NaCl, 4 mM TCEP, 5 mM CHAPS, 5% glycerol, 3.5 mM spermine, 0.018 mM Zn acetate; 0.4 mL/min; masses from a calibration curve. A general note: SEC sorts molecules by how far they enter the pores of the column.
Data set [8] concerns the molecule itself. In words: native gel or EMSA; DNA binding assay with half site dsDNA; partially purified His-tagged Adr1-165 from bacteria (Supplementary Figure S1d, lanes 12-14).

Consider CCGGCCTCTCCAACTTATAAGTTGGAGAGG (structured_DNA) [Palindromic UAS1 hairpin], for which, in the data set with miniAdr1-BL (untagged) [1], the binding result is reported as “no binding”.

B1: Palindromic UAS1 (dsDNA)
DNA 1: CCGGCCTCTCCAACTTATAAGTTGGAGAGG
DNA 2: B1 DNA 1
Turning to B1, the binding result with miniAdr1-BL (untagged) [2] and in the data set with Adr1-DBD (untagged) [3] was “binds” in each case.

B2: Half site UAS1 (dsDNA)
DNA 1: TCCGGGCATCTCCAACTTA
DNA 2: CTAAGTTGGAGATGCCCGG
B2: the binding result with His-Adr1-165, with miniAdr1-BL (untagged) [4] and with Adr1-DBD (untagged) [5] was “binds” throughout.

B3: Adr1-DBD (residues 75-178), untagged (domain or fragment, Saccharomyces cerevisiae, UniProt P07248 75-178, looked up)
chain: T2 sequence
notes: Alcohol dehydrogenase repressor 1 (Adr1p), Saccharomyces cerevisiae, UniProt P07248; Printed mass 12.4 kDa; also called construct (5); source: Komagataella pastoris X-33, purified (CM sepharose, SEC)
As for B3, the stoichiometry N (in general, the number of molecules, sites or subunits per partner or assembly) in data set [6] turned out to be 2.

B4: miniAdr1-BL (Adr1_Δ179-418), untagged (domain or fragment, Saccharomyces cerevisiae, UniProt P07248 75-471, looked up)
chain: T1 sequence
notes: Alcohol dehydrogenase repressor 1 (Adr1p), Saccharomyces cerevisiae, UniProt P07248; residues 75-178 (PAR-TAD I with the basic linker 158-178) directly linked to residues 419-471 (core of TAD III); TAD I and TAD III fragments were ligated through inserted BamHI sites; Printed mass 18 kDa; also called construct (4); basic linker construct; source: Komagataella pastoris X-33, cytoplasm, purified …
Take B4: the “stoichiometry N” value in [6] was 2; in data set [7], ~2 and ~3.

B5: His-tagged Adr1-165 (residues 1-165) (domain or fragment, Saccharomyces cerevisiae, UniProt P07248 1-165, looked up)
chain: T3 sequence
notes: Alcohol dehydrogenase repressor 1 (Adr1p), Saccharomyces cerevisiae, UniProt P07248; residues 1-165, comprising only TAD I; also called HisAdr1-165; His-Adr1-165; source: E. coli BL21(DE3), pET28b, partially purified
With B5, the “stoichiometry N” value in data set [8] was determined as 2.
